Experimental data taken from patent US20130039923A1 (Novo Nordisk, published 2013).

B3: recombinant human interleukin-20 (ligand)
chain: LKTLNLGSCVIATNLQEIRNGFSEIRGSVQAKDGNIDIRILRRTESLQDTKPANRCCLLRHLLRLYLDRVFKNYQTPDHYTLRKISSLANSFLTIKKDLRLCHAHMTCHCGEEAMKKYSQILSHFEKLEPQAAVVKALGELDILLQWMEETE

Assays:
[1] = biological target: cynomolgus IL20R1/IL20R2 receptor complex (cynomolgus monkey); test: cell-based or functional assay
[2] = biological target: cynomolgus IL22R1/IL20R2 receptor complex (cynomolgus monkey); test: cell-based or functional assay
[3] = biological target: T1, human IL20R1/IL20R2 receptor complex (human, UniProt Q9UHF4 30-553; Q6UXL0 30-311); test: inferred from BaF-3(hIL20R) proliferation; IL19 reverted the 15D2 block
T1 construct: whole, on cells; also called hIL20R; hIL20R1+hIL20R2
T1 sequence (looked up) 1: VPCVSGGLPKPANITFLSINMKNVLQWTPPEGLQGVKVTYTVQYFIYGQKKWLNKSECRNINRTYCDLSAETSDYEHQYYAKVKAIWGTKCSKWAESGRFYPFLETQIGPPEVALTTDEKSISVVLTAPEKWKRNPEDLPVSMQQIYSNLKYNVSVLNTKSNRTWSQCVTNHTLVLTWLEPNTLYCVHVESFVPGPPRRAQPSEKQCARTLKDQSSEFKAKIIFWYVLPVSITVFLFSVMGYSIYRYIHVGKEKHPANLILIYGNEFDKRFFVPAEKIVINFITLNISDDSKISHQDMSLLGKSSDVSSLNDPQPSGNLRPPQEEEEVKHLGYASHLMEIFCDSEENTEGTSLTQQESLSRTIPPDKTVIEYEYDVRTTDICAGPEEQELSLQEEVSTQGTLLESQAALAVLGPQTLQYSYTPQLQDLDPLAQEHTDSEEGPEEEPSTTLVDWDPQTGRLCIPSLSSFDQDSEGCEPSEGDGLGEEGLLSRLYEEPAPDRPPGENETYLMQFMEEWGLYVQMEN
T1 sequence (looked up) 2: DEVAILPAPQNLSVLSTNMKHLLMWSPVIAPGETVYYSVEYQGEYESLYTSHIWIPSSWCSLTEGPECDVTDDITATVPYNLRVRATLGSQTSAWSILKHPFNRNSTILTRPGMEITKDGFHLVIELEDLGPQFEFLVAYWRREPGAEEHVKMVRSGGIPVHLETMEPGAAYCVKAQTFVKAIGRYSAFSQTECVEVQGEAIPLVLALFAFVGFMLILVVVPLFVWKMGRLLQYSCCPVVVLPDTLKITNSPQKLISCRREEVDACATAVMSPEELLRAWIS

[4] = biological target: B3; test: cell-based or functional assay
[5] = biological target: T1, human IL20R1/IL20R2 receptor complex; test: cell-based or functional assay
[6] = biological target: T2, human IL22R1/IL20R2 receptor complex (human, UniProt Q8N6P7 16-574; Q6UXL0 30-311); test: cell-based or functional assay
T2 sequence (looked up) 1: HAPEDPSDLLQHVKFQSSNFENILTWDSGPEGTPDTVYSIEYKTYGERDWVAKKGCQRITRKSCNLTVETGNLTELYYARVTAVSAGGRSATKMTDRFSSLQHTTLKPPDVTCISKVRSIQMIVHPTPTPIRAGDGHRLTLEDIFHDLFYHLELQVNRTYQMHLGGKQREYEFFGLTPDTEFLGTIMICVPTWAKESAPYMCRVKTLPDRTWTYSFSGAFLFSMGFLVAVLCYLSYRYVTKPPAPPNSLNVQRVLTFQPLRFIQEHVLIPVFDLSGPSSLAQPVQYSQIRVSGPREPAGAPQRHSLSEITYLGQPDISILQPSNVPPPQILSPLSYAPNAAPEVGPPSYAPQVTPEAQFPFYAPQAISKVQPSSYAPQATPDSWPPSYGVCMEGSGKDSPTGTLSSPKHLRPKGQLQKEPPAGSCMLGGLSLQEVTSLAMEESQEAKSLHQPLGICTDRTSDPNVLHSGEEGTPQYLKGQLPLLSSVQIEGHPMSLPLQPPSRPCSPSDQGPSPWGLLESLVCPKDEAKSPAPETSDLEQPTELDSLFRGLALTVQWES
T2 sequence (looked up) 2: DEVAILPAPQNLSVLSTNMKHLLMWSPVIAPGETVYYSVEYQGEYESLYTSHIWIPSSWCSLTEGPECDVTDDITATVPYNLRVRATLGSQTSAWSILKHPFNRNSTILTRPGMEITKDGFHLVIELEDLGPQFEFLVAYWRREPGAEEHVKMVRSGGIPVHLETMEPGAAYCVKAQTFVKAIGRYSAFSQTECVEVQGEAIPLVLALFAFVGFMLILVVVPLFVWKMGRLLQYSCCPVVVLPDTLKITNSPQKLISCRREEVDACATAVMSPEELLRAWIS

[7] = biological target: B3; test: SPR (Biacore 3000/T100), antibody amine-coupled on CM5, recombinant hIL20 injected 3.125-100 nM, 1:1 Langmuir, 25 C; antibody from CHO
Protocol: (§1) Affinity studies were performed using a direct binding procedure, with the monoclonal antibody covalently coupled via free amine groups to the carboxymethylated dextrane membrane (CM5) on the sensor chip surface. […] The kinetic parameters for the interaction could be calculated using a 1:1 interaction Langmuir fitting model.
(§2) The purified monoclonal antibodies were immobilized in individual flow cells on a CM5 type sensor chip. Immobilizations were performed using a standard amine coupling procedure, aiming for an immobilization level of 1000 Resonance Units (RU). The antibodies were diluted to 5 μg/ml in 10 mM NaAc pH 5.0. […] Association (injection) was 3 min., followed by a 30 min. dissociation (wash) period. Flow rate was 30 μl/min. Experiments were performed at 25° C. Regeneration of the surface following each cycle, was accomplished by injection of 30 sec. pulse of 10 mM Glycin-HCl pH 1.8, at a 30 ul/min flow rate. Detection in all flow cells simultaneously. Flow cell No. 1 contained no immobilized antibody, and was used for subtraction of background and bulk. […] Data was inspected for mass-transport limitations prior to calculation of the kinetic parameters. Experiments were performed on Biacore 3000 and T100 instruments. Data was evaluated using Biaeval 4.1 and Biacore T100 evaluation software.

[8] = biological target: B3; test: SPR (Biacore 3000/T100), antibody amine-coupled on CM5, recombinant hIL20 injected 3.125-100 nM, 1:1 Langmuir, 25 C; antibody from HEK293
Protocol: as §1, §2

cynomolgus IL20 (from UniProt Q9NYY1 25-176) (ligand)
fold induction of luciferase reporter in transfected BHK cells, 1 nM cynoIL20 [1]: 2 fold
fold induction of luciferase reporter in transfected BHK cells, 1 nM cynoIL20 [2]: 3 to 4 fold

B1: human IL19 (ligand)
chain: LRRCLISTDMHHIEESFQEIKRAIQAKDTFPNVTILSTLETLQIIKPLDVCCVTKNLLAFYVDRVFKDHQEPNPKILRKISSIANSFLYMQKTLRQCQEQRQCHCRQEATNATRVIHDNYDQLEVHAAAIKSLGELDVFLAWINKNHEVMFSA
notes: Bought from R&D systems; whole entry named; also called hIL19
binding result [3]: binds

B2: human anti-IL20 antibody 2F6 (antibody, human IgG4, V domains shown)
VH: QITLKESGPTLVKPTQTLTLTCTFSGFSFSTNGVGVGWIRQPPGKALEWLALIYWNDDKRYSPSLKSRLTITKDTSKNQVVLTMTNMDPLDTATYYCAHSPFIMVRGVIITFFDFWGQGTLVT
VL: VIWMTQSPSLLSASTGDRVTISCRMSQGISSYLAWYQQKPGKAPELLIYAASTLQSGVPSRFSGSGSGTDFTLTISCLQSEDFATYYCQQYYSFPLTFGGGTKVEIKR
IC50, inhibition of IL20 induced proliferation of BaF-3(hIL20R) at 1e-9M hIL20 (assay 1) [4]: 15400 nM
IC50, inhibition of IL20 induced proliferation of BaF-3(hIL20R) at 1e-9M hIL20 (assay 2) [4]: 13900 nM
IC50, inhibition of IL20 induced proliferation of BaF-3(hIL20R) at 1e-9M hIL20 (assay 3) [4]: 1670 nM
IC50, inhibition of IL20 induced proliferation of BaF-3(hIL20R) at 1e-9M hIL20 (assay 4) [4]: 360 nM
IC50, inhibition of IL20 induced proliferation of BaF-3(hIL20R) at 1e-9M hIL20 (assay 5) [4]: 1800 nM
IC50, inhibition of IL20 induced proliferation of BaF-3(hIL20R) at 1e-9M hIL20 (assay 6) [4]: 320 nM
IC50, inhibition of IL20 induced proliferation of BaF-3(hIL20R) at 1e-9M hIL20 (assay 7) [4]: 15400 nM

B3
fold induction of luciferase reporter in transfected BHK cells, 1 nM hIL20 [5]: ~3 fold
fold induction of luciferase reporter in transfected BHK cells, 1 nM hIL20 [6]: ~3 fold

B4: F18 (LC: F56Type1; HC: F18) (antibody, human IgG4, V domains shown)
VH: QVQVVQSGAEVKKPGASVRVSCTASGYTFTDYAIHWVRQAPGQRLEWMGWINAGYGNTKYSQKFQGRVTITRDTSASTVYMELSSLRSEDTAVYYCAREGGALSWFGESQGFDYWGQGTLVT
VL: AIQLTQSPSSLSASVGDRVTITCRASQGISSALAWYQQKPGKAPKLLIYDASSLESGVPSRFSGSGSGTDFTLTISSLQPEDFATYYCQQFNSYPLTFGGGTKVEIKR
IC50, inhibition of IL20 induced proliferation of BaF-3(hIL20R) at 1e-9M hIL20 (assay 5) [4]: 50 nM

B5: 15D2 with an S241P mutation (antibody, V domains shown)
VH: QVQLVQSGAEVKRPGASVKVSCKASGYTFTNDIIHWVRQAPGQRLEWMGWINAGYGNTQYSQNFQDRVSITRDTSASTAYMELISLRSEDTAVYYCAREPLWFGESSPHDYYGMDVWGQGTTVTVSS
VL: AIQLTQSPSSLSASVGDRVTITCRASQGISSALAWYQQKPGKAPKLLIYDASSLESGVPSRFSGSGSGTDFTLTISSLQPEDFATYYCQQFNSYPLTFGGGTKVEIKR
notes: IgG4 hinge mutation S241P (Kabat); Expressed in HEK293 or CHO cells (host named under assay); also called 15D2-S241P; not shown: human IgG4 heavy chain constant region
Kd [7]: 0.031 nM
koff [7]: 7.1e-05 s⁻¹
kon [7]: 2.3e+06 M⁻¹ s⁻¹
Kd [8]: 0.036 nM
koff [8]: 6.8e-05 s⁻¹
kon [8]: 1.7e+06 M⁻¹ s⁻¹

B6: F56 (LC: F56Type1; HC: F56) (antibody, human IgG4, V domains shown)
VH: QVQLVQSGAEVKKPGASVRVSCTASGYTFPNYAIHWVRQAPGQRLEWMGWINAGYGNTKYSQKFQGRVTITRDTSASTAYMELSSLRSEDTAVYYCAREGGVLLWFGESQGFDYWGQGTLVT
VL: AIQLTQSPSSLSASVGDRVTITCRASQGISSALAWYQQKPGKAPKLLIYDASSLESGVPSRFSGSGSGTDFTLTISSLQPEDFATYYCQQFNSYPLTFGGGTKVEIKR
IC50, inhibition of IL20 induced proliferation of BaF-3(hIL20R) at 1e-9M hIL20 (assay 4) [4]: 40 nM
IC50, inhibition of IL20 induced proliferation of BaF-3(hIL20R) at 1e-9M hIL20 (assay 5) [4]: 730 nM

B7: human anti-IL20 antibody C11 (antibody, human IgG1, V domains shown)
VH: QVQLVQSGAEVKRPGASVKVSCKASGYTFTNDIIHWVRQAPGQRLEWMGWINAGYGNTQYSQNFQDRVSITRDTSASTAYMELISLRSEDTAVYYCAREPLWFGESSPHDYYGMDVWGQGTTVTVSS
VL: AIQLTQSPSSLSASVGDRVTITCRASQGISSALAWYQQKPGKAPKLLIYDASSLESGVPSRFSGSGSGTDFTLTISSLQPEDFATYYCQQFNSYPLTFGGGTKVEIKR
IC50, inhibition of IL20 induced proliferation of BaF-3(hIL20R) at 1e-9M hIL20 (assay 1) [4]: 260 nM
IC50, inhibition of IL20 induced proliferation of BaF-3(hIL20R) at 1e-9M hIL20 (assay 2) [4]: 2000 nM
IC50, inhibition of IL20 induced proliferation of BaF-3(hIL20R) at 1e-9M hIL20 (assay 3) [4]: 370 nM
IC50, inhibition of IL20 induced proliferation of BaF-3(hIL20R) at 1e-9M hIL20 (assay 7) [4]: 186 nM
